In US20210403506A1 (XDCEXPLORER SHANGHAI, published 2021):
Read-outs that look alike come from different tables or passages of the source. Each block holds one binder with its values, some of them ahead of it. Numbered stars: 1 amine (or outer) side, 2 acyl side, 3 side chain; on linkers, the order of the positions; unused ones are H or OH. Square brackets hold non-standard residues; d marks the D form. Primed or numbered codes have the meaning given here. Ends that are not written are not given here. * marks the point of attachment. TP5C = (S)-4,5,6,7-tetrahydrothieno[2,3-c]pyridine-5-carboxylic acid, O=C([C@@H]1Cc2ccsc2CN1[*:1])[*:2]; TP6C = (S)-4,5,6,7-tetrahydrothieno[2,3-c]pyridine-6-carboxylic acid, O=C([C@@H]1Cc2ccsc2CN1[*:1])[*:2]; Diphenylacetyl = O=C(C(c1ccccc1)c1ccccc1)*; dNMeY = CN[C@H](Cc1ccc(O)cc1)C(=O)O; Hydrocinnamoyl = O=C(CCc1ccccc1)*; 3‑phenylpropyl = c1ccc(CCC*)cc1; Tic = O=C(O)[C@@H]1Cc2ccccc2CN1; NMeL = CN[C@@H](CC(C)C)C(=O)O; NMeS = CN[C@@H](CO)C(=O)O; Nle = CCCC[C@H](N)C(=O)O; dTi1c = not defined here; Nva = CCC[C@H](N)C(=O)O; Thz′ = not defined here

Columns and labels:
[1] = biological target: T1, human Chemokine like receptor 1 (human, UniProt Q99788 1-373); assay: cell-based or functional assay
T1 sequence (looked up): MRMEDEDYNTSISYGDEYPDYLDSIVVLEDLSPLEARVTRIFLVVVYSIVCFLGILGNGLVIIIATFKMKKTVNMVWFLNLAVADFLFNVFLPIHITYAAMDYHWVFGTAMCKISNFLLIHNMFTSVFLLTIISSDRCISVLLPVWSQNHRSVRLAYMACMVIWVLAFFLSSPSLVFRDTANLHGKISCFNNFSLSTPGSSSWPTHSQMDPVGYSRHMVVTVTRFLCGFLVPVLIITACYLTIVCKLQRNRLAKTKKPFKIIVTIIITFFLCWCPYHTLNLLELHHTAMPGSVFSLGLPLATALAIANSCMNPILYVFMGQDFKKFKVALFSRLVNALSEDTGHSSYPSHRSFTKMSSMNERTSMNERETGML

[2] = biological target: T1, human Chemokine like receptor 1; assay: cell-based or functional assay; remark: listed apart in the source

B1: YW-74 (peptide)
peptide: {3‑phenylpropyl}-[dY]FLP[dS]QF[dA][Tic]S-OH
SMILES: CC(C)C[C@H](NC(=O)[C@H](Cc1ccccc1)NC(=O)[C@@H](Cc1ccc(O)cc1)NCCCc1ccccc1)C(=O)N1CCC[C@H]1C(=O)N[C@H](CO)C(=O)N[C@@H](CCC(N)=O)C(=O)N[C@@H](Cc1ccccc1)C(=O)N[C@H](C)C(=O)N1Cc2ccccc2C[C@H]1C(=O)N[C@@H](CO)C(=O)O
- EC50 (µM), activation of Tango CMKLR1-bla U2OS cells [1]: 0.0062 µM

Binder: {5‑phenylpentanoyl}-[dY]FLP[dS]QF[dA][Tic]S-OH [YW-76]
- EC50 (µM), activation of Tango CMKLR1-bla U2OS cells [1]: 0.043 µM

Binder: {4‑biphenylacetyl}-[dY]FLP[dS]QF[dA][Tic]S-OH [YW-77]
- EC50 (µM), activation of Tango CMKLR1-bla U2OS cells [1]: 0.053 µM

B3: YW-78 (peptide)
peptide: Diphenylacetyl-[dY]FLP[dS]QF[dA][Tic]S-OH
SMILES: CC(C)C[C@H](NC(=O)[C@H](Cc1ccccc1)NC(=O)[C@@H](Cc1ccc(O)cc1)NC(=O)C(c1ccccc1)c1ccccc1)C(=O)N1CCC[C@H]1C(=O)N[C@H](CO)C(=O)N[C@@H](CCC(N)=O)C(=O)N[C@@H](Cc1ccccc1)C(=O)N[C@H](C)C(=O)N1Cc2ccccc2C[C@H]1C(=O)N[C@@H](CO)C(=O)O
- EC50 (µM), activation of Tango CMKLR1-bla U2OS cells [1]: 0.026 µM

B5: YW-71 (peptide)
peptide: Hydrocinnamoyl-[dY]FLP[dS]QF[dA][Tic]S-OH
SMILES: CC(C)C[C@H](NC(=O)[C@H](Cc1ccccc1)NC(=O)[C@@H](Cc1ccc(O)cc1)NC(=O)CCc1ccccc1)C(=O)N1CCC[C@H]1C(=O)N[C@H](CO)C(=O)N[C@@H](CCC(N)=O)C(=O)N[C@@H](Cc1ccccc1)C(=O)N[C@H](C)C(=O)N1Cc2ccccc2C[C@H]1C(=O)N[C@@H](CO)C(=O)O
- EC50 (µM), activation of Tango CMKLR1-bla U2OS cells [1]: 0.031 µM

Binder: [dY]FLP[dS]QF[dA][Tic]S-OH [YW-3]
- EC50 (µM), activation of Tango CMKLR1-bla U2OS cells [2]: 0.019 µM

Binder: {4‑phenylbutanoyl}-[dY]FLP[dS]QF[dA][Tic]S-OH [YW-75]
- EC50 (µM), activation of Tango CMKLR1-bla U2OS cells [1]: 0.05 µM

Binder: {3,5‑dihydroxybenzoyl}-[dY]FLP[dS]QF[dA][Tic]S-OH [YW-79]
- EC50 (µM), activation of Tango CMKLR1-bla U2OS cells [1]: 0.0047 µM

Binder: phenethylcarbamothioyl-[dY]FLP[dS]QF[dA][Tic]S-OH [YW-73]
- EC50 (µM), activation of Tango CMKLR1-bla U2OS cells [1]: 0.028 µM

Binder: [dNMeY]F[NMeL][Thz′][dS]QF[dA][Tic][NMeS] (reading uncertain) [YW-124]
- EC50 (µM), activation of Tango CMKLR1-bla U2OS cells [1]: 0.0013 µM

Binder: phenethylcarbamoyl-[dY]FLP[dS]QF[dA][Tic]S-OH [YW-72]
- EC50 (µM), activation of Tango CMKLR1-bla U2OS cells [1]: 0.045 µM

Other lines, results leading:

- EC50 (µM), activation of Tango CMKLR1-bla U2OS cells [1]: 0.01 µM
Binder: [dY]F[Nle]P[dS]QF[dA][Tic]S [YW-197]

- EC50 (µM), activation of Tango CMKLR1-bla U2OS cells [1]: 0.034 µM
B2: YW-154 (peptide)
peptide: [dNMeY]FLP[dS]QF[dA][dTi1c]S-OH
modifications: reading uncertain; also: printed as (D-NMe-Tyr)-Phe-Leu-Pro-(D-Ser)-Gln-Phe-(D-Ala)-(D-Ti1c)-Ser

- EC50 (µM), activation of Tango CMKLR1-bla U2OS cells [1]: 0.02 µM
Binder: {2,6‑dihydroxybenzoyl}-[dY]FLP[dS]QF[dA][Tic]S-OH [YW-128]

- EC50 (µM), activation of Tango CMKLR1-bla U2OS cells [1]: 0.018 µM
B4: YW-159 (peptide)
peptide: [dY]FLP[dS]QF[dA][TP6C]S-OH
modifications: N-terminus assumed
SMILES: CC(C)C[C@H](NC(=O)[C@H](Cc1ccccc1)NC(=O)[C@H](N)Cc1ccc(O)cc1)C(=O)N1CCC[C@H]1C(=O)N[C@H](CO)C(=O)N[C@@H](CCC(N)=O)C(=O)N[C@@H](Cc1ccccc1)C(=O)N[C@H](C)C(=O)N1Cc2sccc2C[C@H]1C(=O)N[C@@H](CO)C(=O)O

- EC50 (µM), activation of Tango CMKLR1-bla U2OS cells [1]: 0.01 µM
Binder: {2,3‑dihydroxybenzoyl}-[dY]FLP[dS]QF[dA][Tic]S-OH [YW-127]

- EC50 (µM), activation of Tango CMKLR1-bla U2OS cells [1]: 0.027 µM
B6: YW-151 (peptide)
peptide: [dY]FLP[dS]QF[dA][dTi1c]S-OH
modifications: reading uncertain; also: printed as (D-Tyr)-Phe-Leu-Pro-(D-Ser)-Gln-Phe-(D-Ala)-(D-Ti1c)-Ser

- EC50 (µM), activation of Tango CMKLR1-bla U2OS cells [1]: 0.0068 µM
B7: YW-189 (peptide)
peptide: [dY]FLP[dS]QF[dA][Tic]S-NH2
modifications: N-terminus assumed
SMILES: CC(C)C[C@H](NC(=O)[C@H](Cc1ccccc1)NC(=O)[C@H](N)Cc1ccc(O)cc1)C(=O)N1CCC[C@H]1C(=O)N[C@H](CO)C(=O)N[C@@H](CCC(N)=O)C(=O)N[C@@H](Cc1ccccc1)C(=O)N[C@H](C)C(=O)N1Cc2ccccc2C[C@H]1C(=O)N[C@@H](CO)C(N)=O

- EC50 (µM), activation of Tango CMKLR1-bla U2OS cells [1]: 0.0091 µM
Binder: {2,3,4‑trihydroxybenzoyl}-[dY]FLP[dS]QF[dA][Tic]S-OH [YW-129]

- EC50 (µM), activation of Tango CMKLR1-bla U2OS cells [1]: 0.065 µM
B8: YW-158 (peptide)
peptide: [dY]FLP[dS]QF[dA][TP5C]S-OH
modifications: N-terminus assumed
SMILES: CC(C)C[C@H](NC(=O)[C@H](Cc1ccccc1)NC(=O)[C@H](N)Cc1ccc(O)cc1)C(=O)N1CCC[C@H]1C(=O)N[C@H](CO)C(=O)N[C@@H](CCC(N)=O)C(=O)N[C@@H](Cc1ccccc1)C(=O)N[C@H](C)C(=O)N1Cc2sccc2C[C@H]1C(=O)N[C@@H](CO)C(=O)O

- EC50 (µM), activation of Tango CMKLR1-bla U2OS cells [1]: 0.062 µM
Binder: [dY]FLP[dS]QF[dA][Ti1c]S-OH [YW-150]

- EC50 (µM), activation of Tango CMKLR1-bla U2OS cells [1]: 0.039 µM
Binder: [dY]F[Nva]P[dS]QF[dA][Tic]S [YW-196]
